This series deals with HIV-1 Tat (E. coli, purified) (HIV-1, UniProt P12506). The experiment in a line: NMR titration (1D 1H imino). The following applies: protein: recombinant; tags: N-terminal His6, stated as cleaved after purification.

B1: HIV Tat RNA aptamer (unlabeled) (structured_RNA)
RNA: GGGAGCUUGAUCCCGGAAACGGUCGAUCGCUCCC
For B1, the binding result is recorded as “binds”.
